The data set concerns the molecule itself. In words: sucrose gradient centrifugation; crude mitochondrial extracts solubilized with 1% digitonin at low protein density (pellet in 500 μl, 10× less dense); 5-25% sucrose gradient, 14-16 h at 4°C; fractions blotted for HA.

B1: HA-tagged Fzo1 (yeast mitofusin), wild type (natural protein, yeast (strains isogenic to S288c), UniProt P38297 1-855, looked up)
chain: MSEGKQQFKDSNKPHKDSTDQDDDAATIVPQTLTYSRNEGHFLGSNFHGVTDDRTTLFDGEEGRREDDLLPSLRSSNSKAHLISSQLSQWNYNNNRVLLKRSILKTQAFMDQLQEENNIRPIFIAANDEREKLHVLQLNIKLDGQYNTKEKNGFNIEKKALSKLFHSQIVSVTNHLNALKKRVDDVSSKVFITGDVNTGKSALCNSLLKQRLLPEDQLPCTNVFSEILEARENDGIEEVHAIPLNIAPTLKEAIDMYSIQNPKTYEIHTLKELPDLVPQNGKYALLKIYIKDDKRPASTSLLRNGTVDISLIDSPGLNMDSLQTAEVMSRQEEIDLVIFVVNAENQLTLSAKEFISLASREKKLMFFVVKKFDKIRDKQRCKELILKQIRDLSPETYKRAADFVHFVSKNGDELPHYHNENDNEDHGDRKPDDDPYSSSDPDPDFDSLEDSLRNFVLKKRSLSKLLPAKTYLSKLLSDIIMISKSNMKMYSEEEIKINEQLETLRPEILSARAKCNDLTTSVDQMAEQTITMTYNNTKEALLNALDVPLHEYPKYQGLGQIYDFIFSTEAFIANQIDESIGSSELFAKQKTDLLVKKIYEIGKNELGDDFMCERVFRSELMFRKRKHLIGKRLKVSLSITDLFAPTWKGFLSYLSWQKPVTAPLPDIEGQTNEGQIGLMKYLGLKNYPLTQYWSRPSLLFTSKIPTLTLYFLGSTKVVGNIILNGIKLSSWSSLKKLSVPVIVVGSLLGLTYLIHDLPRALPMNLSIKYKRKLQELDYIHLNAQRTSNEVRDVLRVPTREILRSCEIIMDKKQITKKELENKKESNLLSIKFFQSLYEGTVAQKLMVEEINLDID
modifications: unmodified and ubiquitylated forms both present; K48-linked ubiquitin chains conjugated to lysine 398
notes: Fzo1, the yeast mitofusin (large dynamin-related GTPase of the mitochondrial outer membrane); The immunoprecipitate holds a mix of unmodified and ubiquitylated Fzo1; also called HA-Fzo1; wt Fzo1; source: yeast (isogenic to S288c), genomically HA-tagged or expressed from the centromeric plasmid pRS316 in Δfzo1 cells; in solubilized crude mitochondrial extracts
In the case of B1, the stoichiometry N – broadly, a count of units in the complex or per binding partner – came to 2.

(Values after paper PMC6925385, “Dual role of a GTPase conformational switch for membrane fusion by mitofusin ubiquitylation” (Life Science Alliance, 2019).)
